Results taken from patent US20240343803A1 (SHANDONG SIMCERE BIOPHARMACEUTICAL, published 2024).
Changes are numbered by the printed parent chain.

B1: TIGIT-002-H4L3 (antibody, V domains shown)
VH: EVQLQESGPGLVKPSETLSLTCAVSGYSITSDSWNWIRQPPGKKLEYIGYISYSGNTYYNPSLKSRVTISRDTSKNQFSLKLSSVTAADTAVYYCARLDFSNYGGAVDYWGQGTTVTVSS
VL: DIVMTQSPDSLAVSLGERATINCKASQNVRTAVAWYQQKPGQSPKLMIYSASYRYTGVPDRFSGSGSGTDFTLTISSLQAEDVAVYYCQQYYTTPWTFGGGTKVEIK
notes: humanized; 002.VH4 with 002.VL3
B2: TIGIT-005-H2L1d (antibody, V domains shown)
VH: EVQLVQSGAEVKKPGASVKVSCKASGYAFTNYLIEWVRQAPGQRLEWMGVINPGSGGTNYKEKFKGRVTITADKSSSTAYMELSSLRSEDTAVYYCARGEYFFFDYWGQGTTVTVSS
VL: B1 VL with N28H, R30S, T31N, Q38H, M47L, Y91H, T93N, W96H
notes: humanized; 005.VH2 with 005.VL1d
B3: COM701-hIgG1 (antibody, V domains shown)
VH: QVQLVQSGAEVKKPGASVKVSCKASGYTFTDYNINWVRQAPGQGLEWMGYIYPYIGGSGYAQKFQGRVTMTRDTSTSTVYMELSSLRSEDTAVYYCAREDKTARNAMDYWGQGTLVTVSS
VL: DIQMTQSPSSLSASVGDRVTITCRVSENIYSNLAWYQQKPGKAPKLLIYEATNLAEGVPSRFSGSGSGTDFTLTISSLQPEDFATYYCQHFWGTPYTFGQGTKLEIK
notes: human IgG1 format by its name

Assays:
[1] = biological target: T1, TIGIT on human PBMCs stimulated by SEA (human, UniProt Q495A1 22-244); assay: FACS, SEA-stimulated human PBMCs
T1 construct: whole, on cells
T1 sequence (looked up): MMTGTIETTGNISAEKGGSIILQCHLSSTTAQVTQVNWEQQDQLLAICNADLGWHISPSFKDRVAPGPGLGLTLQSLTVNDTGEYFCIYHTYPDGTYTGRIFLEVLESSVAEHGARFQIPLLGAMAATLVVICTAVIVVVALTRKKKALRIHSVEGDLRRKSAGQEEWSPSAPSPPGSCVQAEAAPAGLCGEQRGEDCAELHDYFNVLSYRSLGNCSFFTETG
Protocol: The fresh human PBMCs (AllCells, PB004-C) were adjusted to a density of 5×10⁵/mL, added with SEA (Toxin Technology, Inc., AT101) to 100 ng/mL, and cultured at 37° C. with 5% CO₂ for 3 days. The cells were collected 3 days later, washed once with PBS (Hyclone, SH30256), added with Fc Block (BD, 564220) and then incubated at 4° C. for 10 minutes. After washing twice with PBS, the PBMCs were resuspended to 2×10⁵/50 μL with 1% BSA-PBS. The humanized antibodies were diluted to 80 nM with 1% BSA-PBS (diluted by 3-fold serial dilution for 12 concentration points). The 50 μL cells were then mixed with 50 μL diluted antibodies, and then incubated at 4° C. for 60 minutes. […] After washing twice with PBS, the cell samples were resuspended with 1% BSA-PBS, 100 µL/well, and then analyzed by flow cytometry (BD, Canto II).

[2] = biological target: T2, full-length cynomolgus monkey TIGIT on CHO-K1 cells (CHO-K1 cynomolgus monkey TIGIT) (cynomolgus monkey); assay: FACS, CHO-K1 cynomolgus monkey TIGIT cells
T2 construct: NCBI XP_015300911.1; also called cynomolgus monkey TIGIT cells
Protocol: (§1) The collected cells were washed once with PBS (Hyclone, Cat NO. SH30256), resuspended to 2×10⁵/50 μL with 1% BSA-PBS. The antibodies were diluted to 80 nM with 1% BSA-PBS (diluted by 3-fold serial dilution for 12 concentration points). The 50 μL cells were then mixed with 50 μL diluted antibodies, and then incubated at 4° C. for 60 minutes. […] After washing twice with PBS, the cell samples were resuspended with 1% BSA-PBS, 100 μL/well and then analyzed by flow cytometry (BD, Canto II).

[3] = biological target: T3, full-length human TIGIT on CHO-K1 cells (CHO-K1 human TIGIT) (human, UniProt Q495A1 22-244); assay: FACS, CHO-K1 human TIGIT low expression strain
T3 construct: NCBI XP_024309156.1; entry includes the signal peptide; also called high expression strain 1D2; medium expression strain 2D10
T3 sequence: T1 sequence (looked up)
Protocol: as §1

[4] = biological target: T3, full-length human TIGIT on CHO-K1 cells …; assay: FACS, CHO-K1 human TIGIT high expression strain
Protocol: as §1

[5] = biological target: T3, full-length human TIGIT on CHO-K1 cells …; assay: FACS, CHO-K1 human TIGIT medium expression strain
Protocol: as §1

[6] = biological target: T3, full-length human TIGIT on CHO-K1 cells …; assay: competition FACS; blocked: Bio-CD155-His binding to CHO-K1 human TIGIT cells
Protocol: The collected cells were washed once with PBS (Hyclone, SH30256), resuspended to 2×10⁵/40 μL with 1% BSA-PBS. The antibodies were diluted to 210 nM with 1% BSA-PBS (diluted by 3-fold serial dilution for 12 concentration points). […] The 40 μL cells were then mixed with 40 μL diluted antibodies and 40 μL diluted Bio-CD155-His, and then incubated at 4° C. for 60 minutes. The cells were washed twice with PBS, resuspended with APC labeled streptavidin (dilution ratio 1:1700, Biolegend, 405243), 100 μL/well, and incubated at 4° C. for 40 minutes. The cell samples were washed twice with PBS, resuspended with 1% BSA-PBS (100 μL/well) and then analyzed by flow cytometry (BD, Canto II).

[7] = biological target: T4, human PVRIG-his (AcroBiosystems, Cat NO. PVG-H52H4) (human, UniProt Q6DKI7 41-171, limits assumed); assay: ELISA, coated human PVRIG-his
T4 construct: treated as the same protein; also called human PVRIG-His protein; Human PVRIG-His, Acro C227P1-9ARF1-T4
T4 sequence (looked up): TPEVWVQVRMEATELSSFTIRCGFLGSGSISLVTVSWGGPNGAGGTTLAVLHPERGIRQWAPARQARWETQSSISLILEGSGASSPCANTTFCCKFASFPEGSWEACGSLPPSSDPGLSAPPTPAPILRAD
Protocol: (§2) The ELISA plate was pre-coated with 100 μL/well of 0.5 μg/mL human PVRIG-his (AcroBiosystems, Cat NO. PVG-H52H4) or cynomolgus monkey PVRIG (Novoprotein, Cat NO. C09B). […] A HRP substrate, TMB (Thermo, Cat NO. 34029) was added into wells after washing the plate again for color development. After adding a termination solution to terminate the reaction, the absorbance value was read by a microplate reader (MD i3×). An antibody binding curve was drawn with concentration of antibodies as the abscissa and the corresponding OD value as the ordinate. The EC50 value was calculated by using a Four Parameter Logistic Fit (GraphPadPrism9). The smaller the EC50 value, the stronger the ability of the antibodies binds to human or cynomolgus monkey PVRIG. The positive control antibodies are COM701-hIgG1 (Patent No.:US20180244774A1), COM701-hIgG4 (patent No.: US20180244774A1) and SRF813-hIgG1 (Patent No.:US20200040081A1); and the negative control antibodies are anti-HA HcAb-hIgG1 (Chengdu NB Biolab, Cat NO. NBR022), anti-CD38 HcAb-hIgG1 (in-house) and anti-Fluorescein-hIgG1 (in house).

[8] = biological target: T5, cynomolgus monkey PVRIG on FlpinCHO-cyno PVRIG cells (cynomolgus monkey, UniProt A0A2K5WVV8 41-322); assay: FACS, FlpinCHO-cyno PVRIG cells
T5 construct: whole, on cells; also called FlpinCHO-cynomolgus monkey PVRIG
T5 sequence: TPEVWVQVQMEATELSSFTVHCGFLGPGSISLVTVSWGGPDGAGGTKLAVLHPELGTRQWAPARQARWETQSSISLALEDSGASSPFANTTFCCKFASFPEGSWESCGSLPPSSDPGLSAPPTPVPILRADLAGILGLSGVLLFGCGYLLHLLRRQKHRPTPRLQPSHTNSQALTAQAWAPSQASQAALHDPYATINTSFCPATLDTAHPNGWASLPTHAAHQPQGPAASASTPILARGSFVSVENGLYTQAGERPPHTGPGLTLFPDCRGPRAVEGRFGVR
Protocol: After discarding the cell culture medium, the cells were rinsed with PBS and digested for 8-10 minutes by adding 1 mL Versene (Gibico, 15040-066). The Ham's F12 (Gibico, 21127-022) complete medium containing 10% FBS was then added to terminate the digestion and acquire cell suspension. After counting with a cell counter (Beckman Coulter, Vi-CELL), an appropriate amount of cell suspension was centrifuged at 350×g to remove the supernatant, washed twice with PBS, stained with Zombie violet (Biolegend, 423114) and incubated at room temperature for 20 minutes. After incubation, the cells were added with staining buffer (2% FBS+PBS) to stop staining, centrifuged at 350×g to remove the supernatant, washed twice and resuspended with staining buffer to a density of 2×10⁶ cells/mL. The cells were plated into a 96-well plate (50 μL of cell suspension per well) for further use. The antibodies were diluted from the highest concentration of 46 nM (two-fold concentration) with staining buffer by 3.3-fold serial dilution. The diluted antibodies were added to the well containing 50 μL of cell suspension. The plate was placed on a microplate shaker at 400 rpm for 1 minute to fully mix the antibodies and cells, and then incubated at 4° C. for 30 minutes. After the incubation, the cells were washed twice with staining buffer (200 μL per well) and centrifuged at 350×g for 5 minutes to discard the supernatant. The PE goat anti-human IgG Fc antibody (ebioscience, 12-4998-82) was diluted 250 times with staining buffer, added into the washed wells (100 μL per well), mixed well, and stained at 4° C. for 30 minutes. After staining, the cells were washed twice with staining buffer, finally resuspended with 200 μL staining buffer and analyzed by flow cytometry (BD, Canto II). […] An antibody binding curve was drawn with concentration of antibodies as the abscissa and the corresponding Mean Fluorescence Intensity (MFI) as the ordinate. The AUC value of the curve was calculated by using a Four Parameter Logistic Fit (GraphPadPrism9). […]

[9] = biological target: T5, cynomolgus monkey PVRIG on …; assay: FACS, FlpinCHO-cyno PVRIG cells; remark: listed apart in the source
[10] = biological target: T6, cynomolgus monkey PVRIG (Novoprotein, Cat NO. C09B) (cynomolgus monkey, UniProt A0A2K5WVV8 41-171); assay: ELISA, coated cynomolgus monkey PVRIG
T6 construct: bought reagent; also called cynomolgus monkey PVRIG recombinant protein
T6 sequence: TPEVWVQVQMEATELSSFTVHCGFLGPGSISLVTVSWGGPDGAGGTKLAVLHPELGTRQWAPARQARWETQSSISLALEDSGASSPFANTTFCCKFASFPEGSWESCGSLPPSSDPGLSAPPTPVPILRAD
Protocol: as §2

[11] = biological target: T5, cynomolgus monkey PVRIG on …; assay: FACS, FlpinCHO cynomolgus monkey PVRIG cells
Protocol: CHO-K1 stable cells ([…]-61™) transfected with human or cynomolgus monkey PVRIG high expression plasmids were named FlpinCHO-hPVRIG and FlpinCHO-cynoPVRIG. […] After discarding the cell culture medium, the cells were rinsed with PBS and digested for 8-10 minutes by adding 1 mL Versene (Gibico, 15040-066). The Ham's F12 (Gibico, 21127-022) complete medium containing 10% FBS was then added to terminate the digestion and acquire cell suspension. After cell counting, an appropriate amount of cell suspension was centrifuged at 350×g to remove the supernatant, washed twice with PBS, stained with Zombie violet (Biolegend, 423114) and incubated at room temperature for 20 minutes. After incubation, the cells were added with staining buffer (2% FBS+PBS) to stop staining, centrifuged at 350×g to remove the supernatant, washed twice and resuspended with staining buffer to a density of 2×10⁶ cells/mL. The cells were plated into a 96-well plate (50 μL of cell suspension per well) for further use. The antibodies were diluted from the highest concentration of 46 nM (two-fold concentration) with staining buffer by 3.3-fold serial dilution. The diluted antibodies were added to the well containing 50 μL of cell suspension. […] After staining, the cells were washed twice with staining buffer, finally resuspended with 200 μL staining buffer and analyzed by flow cytometry (BD, Canto II).

T2 sequence (chain, as listed by the source limits assumed): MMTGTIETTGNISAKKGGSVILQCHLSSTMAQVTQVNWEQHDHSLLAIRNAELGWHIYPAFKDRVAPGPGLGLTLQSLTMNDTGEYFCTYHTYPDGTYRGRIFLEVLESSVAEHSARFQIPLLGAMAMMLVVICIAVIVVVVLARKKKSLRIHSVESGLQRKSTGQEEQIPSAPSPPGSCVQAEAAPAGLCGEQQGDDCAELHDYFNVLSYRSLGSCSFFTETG

Row | Binder | EC50 (read off the curve) [1] [nM] | EC50 (read off the curve) [2] [nM] | EC50 (read off the curve) [3] [nM] | EC50 (read off the curve) [4] [nM] | EC50 (read off the curve) [5] [nM] | IC50 (read off the curve) [6] [nM] | EC50 (read off the curve) [7] [nM] | EC50 (read off the curve) [8] [nM] | EC50 (read off the curve) [9] [nM] | EC50 (read off the curve) [10] [nM] | EC50 (read off the curve) [11] [nM]
1 | B1 | ~0.06 | ~0.4 | ~0.1 | ~0.2 | ~0.1 | ~0.09 |  |  |  |  | 
2 | B2 | ~0.09 | ~0.4 | ~0.09 | ~0.2 | ~0.1 | ~0.09 |  |  |  |  | 
3 | B3 |  |  |  |  |  |  | ~0.06 | ~0.5 | ~0.6 | ~0.04 | ~0.5
